Patent US20150284450A1, “COMBINATION THERAPIES USING ANTI-PSEUDOMONAS PSL AND PCRV BINDING MOLECULES” (priority 2012, published 2015)
Residue numbers refer to the chain shown, from its start.

B1: V2L2-germlined mAb (V2L2-GL) (antibody, V domains shown)
VH: EVQLLESGGGLVQPGGSLRLSCAASGFTFSSYAMNWVRQAPGKGLEWVSAITISGITAYYTDSVKGRFTISRDNSKNTLYLQMNSLRAEDTAVYYCAKEEFLPGTHYYYGMDVWGQGTTVTVSS
VL: AIQMTQSPSSLSASVGDRVTITCRASQGIRNDLGWYQQKPGKAPKLVIYSASTLQSGVPSRFSGSGSGTDFTLSISSLQPDDFATYYCLQDYNYPWTFGQGTKVEIK
B2: V2L2-MD (germlined lead optimized V2L2) (antibody, V domains shown)
VH: B1 VH with I53M, S63D
VL: B1 VL with V47L, S74T, D81E

Legend:
[1] = target: rPcrV protein (recombinant Pseudomonas PcrV) (Pseudomonas aeruginosa); experiment: SPR on Bio-Rad ProteOn XPR36; antibody captured on GLC chip with anti-human IgG, rPcrV injected at multiple concentrations
[2] = target: rPcrV protein (recombinant Pseudomonas PcrV) (Pseudomonas aeruginosa); experiment: SPR on Bio-Rad ProteOn XPR36; antibody captured on GLC chip with anti-human IgG, rPcrV injected at multiple concentrations [table]
[3] = target: rPcrV protein (recombinant Pseudomonas PcrV) (Pseudomonas aeruginosa); experiment: Bio-Rad ProteOn XPR36; antibody captured by anti-human IgG on GLC chip, rPcrV injected

Binder | Kd [1] [nM] | koff [1] [s⁻¹] | kon [1] [M⁻¹ s⁻¹] | Kd [2] [nM] | koff [2] [s⁻¹] | kon [2] [M⁻¹ s⁻¹] | fold increase in Kd over V2L2-GL [3] [fold]
B1 | 0.143 | 0.000116 | 808000 | 0.143 | 0.000116 | 808000 | –
B2 | 0.0456 | 4.03e-05 | 884000 | 0.046 | 4.03e-05 | 884000 | 2 to 3
